Reference: PMC10557607 (bioRxiv, 2023)

Biological target: the molecule itself
Assay: SEC + other: dynamic light scattering

B1: AlbB expressed alone (natural protein, Streptomyces noursei)
chain: MNPGETVLPPQLREEIALLAVYLLSSGRGLLEEPADYGIYRCTDGARRALQLLDEHGGSTARLTAVRERLDEVMFAPMGEDRDMGAILDDLCRQMADALPEIETP
- stoichiometry N: 2
